Assay results as given in patent US20210130485A1.

Molecular target: FcγRs
Assay: cell-based or functional assay

pSyk levels in primary human microglial cells on polypeptide-coated plates (pSyk sandwich immunoassay): 3 fold
Substance: cis-LALA modified Fc polypeptide dimer fused to an anti-BACE1 Fab (bispecific antibody)
